The test concerns the target Recombinant human Gal3 (rhGal3) (TrueBinding, #QC200361) (human) (UniProt P17931). Kind of test: cell-based or functional assay.

Experimental findings from US20250243282A1 are described below.

Take “MOPC21-hIgG4 (S228P) isotype control (antibody)”: the % inhibition of CD62L shedding is 21.1%.
